Assay [1] concerns the target T1, HER4 ECD peptide hairpin, overlapping 15-mer peptides (human).
T1 construct: also called β-hairpin of HER4
T1 peptide: PQTFVYNPTTFQLEHNFNA
Kind of assay: CelluSpots peptide array.

In another assay the target is T2, HER4 ECD-HRG complex (human, UniProt Q15303 26-651).
T2 construct: HER4 ECD preincubated with a 5-fold molar excess of Heregulin; also called HER-4-ECD-RG
T2 sequence 1: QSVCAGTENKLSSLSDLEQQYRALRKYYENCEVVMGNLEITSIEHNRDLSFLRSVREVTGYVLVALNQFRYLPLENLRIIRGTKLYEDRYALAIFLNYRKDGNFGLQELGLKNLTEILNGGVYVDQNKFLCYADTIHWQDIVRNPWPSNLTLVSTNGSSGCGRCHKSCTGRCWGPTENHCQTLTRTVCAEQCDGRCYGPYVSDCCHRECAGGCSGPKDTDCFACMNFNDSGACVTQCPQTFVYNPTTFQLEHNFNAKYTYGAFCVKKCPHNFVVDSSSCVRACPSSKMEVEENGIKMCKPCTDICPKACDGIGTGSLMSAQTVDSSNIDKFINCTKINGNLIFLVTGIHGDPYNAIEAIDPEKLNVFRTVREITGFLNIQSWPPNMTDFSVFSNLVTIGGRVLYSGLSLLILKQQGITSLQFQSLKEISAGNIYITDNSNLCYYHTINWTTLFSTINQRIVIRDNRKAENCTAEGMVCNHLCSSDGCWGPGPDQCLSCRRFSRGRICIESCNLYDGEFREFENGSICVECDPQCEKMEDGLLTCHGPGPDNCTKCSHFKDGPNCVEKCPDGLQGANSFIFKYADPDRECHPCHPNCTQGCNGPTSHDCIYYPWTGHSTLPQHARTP
T2 sequence 2: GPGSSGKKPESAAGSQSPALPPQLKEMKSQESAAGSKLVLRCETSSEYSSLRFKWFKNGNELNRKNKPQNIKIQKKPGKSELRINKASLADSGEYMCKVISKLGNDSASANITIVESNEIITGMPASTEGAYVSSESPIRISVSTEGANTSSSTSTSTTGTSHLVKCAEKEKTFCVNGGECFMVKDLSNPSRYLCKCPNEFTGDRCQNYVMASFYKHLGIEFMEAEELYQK
The experiment in a line: SPR Biacore 3000, 37 C.

The next assay has as its target T3, HER3 ECD-HRG complex (human, UniProt P21860 20-643).
T3 construct: also called Heregulin/Her-3 ECD
The experiment in a line: SPR Biacore 3000, 37 C. A general note: SPR reads the build-up and loss of mass on a sensor chip optically.

For assay [2], the target named is T4, human recombinant HER3 ECD (human, UniProt P21860 20-643).
T4 construct: 68 kDa; also called human-Her3-ECD; full length Her3 ECD
The experiment in a line: SPR Biacore 3000, 37 C.

Assay [3] concerns the target human HER3 (full length, on cells) (human, UniProt P21860 20-1342). The experiment in a line: cell-based or functional assay.

This is an account of results in patent US20160002338A1 (Hoffmann-La Roche, published 2016).

B1: anti-HER3 antibody M-08-11 (antibody, V domains shown)
VH: QAYLQQSGAELMRPGASVRMSCQASGYTFTSYTIHWLKQTPRQGLEWIGAIYPRNGDFSYNQKFKDKASLTVDTSSSTAYMHLSSLTSEDSAVYFCARTINYGDWFAYWGQGTLVTVSA
VL: DIQMIQSPASLFVSEGETVIITCRASENIYSNLAWYHQKKGKSPQVLVYAAIKLADGVPLRFSGSGSGTQFSLKINSLQSEDFGSYYCQHFWGPPYTFGSGTNLEIK
notes: also called M-011; <Her3> M-08-11
Take B1: in assay [1], the binding result is reported as “no binding (tested: 1 µg/mL)”.

B2: humanized variant VH-A/VL-D of anti-HER3 antibody M-05-74 (antibody, V domains shown)
VH: QVQLVQSGAELKKPGASVKVSCRTSGYTLTDYWIHWVRQAPGQGLEWMGYINPYTGYTESNQKFKDRVAMTRDASINTAYMELTSLRSDDTAVYYCARPYYYGDYWGQGTLVTVSS
VL: EIVLTQSPATLSLSPGERATLSCSASSSVSYMHWFQQKPGQPPRLLIYSTSNLASGIPARFSGSGSGTDFTLTISSLEPEDFAVYYCQQRSSYPFTFGGGTKVEIK
notes: also called humanized DIB-74
As to B2, the “Molar Ratio MR” value in the assay with HER4 ECD-HRG complex was determined as 0.8; with HER3 ECD-HRG complex, 0.8; in assay [2], 0.7.

B3: M-05-74-Fab-Pseudomonas exotoxin conjugate (M-05-74-PE) (other)
light: QIVLTQSPAIMSASPGERVTITCSASSSVSYMHWFQQKPGTSPKLLIYSTSNLASGVPARFSGSGSGTSYSLTISRMEAEDAATYYCQQRSSYPFTFGSGTKLEIKRTVAAPSVFIFPPSDEQLKSGTASVVCLLNNFYPREAKVQWKVDNALQSGNSQESVTEQDSKDSTYSLSSTLTLSKADYEKHKVYACEVTHQGLSSPVTKSFNRGEC
heavy: QVQLQQSGAELAKPGASVKMSCKTSGYTLTDYWIHWVKQRPGQGLEWIGYINPYTGYTESNQKFKDKATLTADKSSNTAYIQLSSLTSEDSAVYYCARPYYYGDYWGQGTTLTVSSASTKGPSVFPLAPSSKSTSGGTAALGCLVKDYFPEPVTVSWNSGALTSGVHTFPAVLQSSGLYSLSSVVTVPSSSLGTQTYICNVNHKPSNTKVDKKVEPKSCGGGSLPETGGGRHRQPRGWEQLYPTGAEFLGDGGAVSFSTRGTQNWTVERLLQAHRQLEEGGYVFVGYHGTFLEAAQSIVFGGVRARSQDLDAIWAGFYIAGDPALAYGYAQDQEPDAAGRIRNGALLRVYVPRSSLPGFYATSLTLAAPEAAGEVERLIGHPLPLRLDAITGPEESGGRLETILGWPLAERTVVIPSAIPTDPRNVGGDLDPSSIPDSEAAISALPDYASQPGKPPREDL
B3: in assay [3], the “EC50 of cell killing of A549 cells, +HRG beta” value turned out to be 0.13 µg/mL and the “EC50 of cell killing of A549 cells, -HRG beta” value is 1.93 µg/mL.
